Experimental data taken from patent US20210134388A1, “Hyperstable Constrained Peptides and Their Design” (University of Washington, priority 2016, published 2021).
Positions of bridges follow the written chain, without caps; N, C: chain ends. Non-standard residues stand in square brackets, D forms with d. No end group written: not given here.

Tests used:
Format in all cases: physicochemical
[1] = Thermal denaturation monitored by CD spectroscopy; settings: CD wavelength scans, heated to 95° C. and cooled back; 10 mM sodium phosphate buffer (pH 7.0)
Method: (§1) The stability of the designs to thermal and chemical denaturation was assessed by CD spectroscopy. Samples were heated to 95° C. (FIG. 2c), or incubated with increasing concentrations of guanidinium hydrochloride (GdnHCl) (FIG. 2d). The contribution of disulfide bonds to protein folding was assessed by incubating samples with a ˜100-fold molar excess of the reductant tris (2-carboxyethyl) phosphine (TCEP).
(§2) Circular dichroism (CD) wavelength and temperature scans were recorded on AVIV model 420 or Jasco J-1500 CD spectrometer. For thermal denaturation, peptides samples were prepared at 0.07-0.2 mg/ml final concentration in 10 mM sodium phosphate buffer (pH 7.0). Wavelength scans from 195 nm to 260 nm were recorded at 25° C., 55° C., 95° C., and again after cooling back to 25° C. For chemical denaturation experiments, samples for each peptide were prepared in the presence of 0 M to 6 M GdnHCl concentrations. The concentration of GdnHCl was measured by refractometry. Peptide samples were also prepared in the presence of 2.5 mM TCEP (TCEP was pre-equilibrated to pH 7.0 prior to addition), and incubated for 3 hours. Peptide concentrations were the same across all samples. Wavelength scans from 190 nm to 260 nm were recorded for each sample in 0.1 cm cuvette.

[2] = NMR secondary 1Hα chemical shifts at a range of temperatures
Method: FIG. 19: Secondary ^1Hα chemical shifts at a range of temperatures for peptide NC_cHLHR_D1 (SEQ ID NO:09). NMR spectra were collected at 25° C. (black bars), 55° C. (blue bars), 75° C. (red bars), and again after cooling to 25° C. (green bars).
Each non-canonical peptide (1 mg) was dissolved in […] of 10% D20/90% H2O or 100% D2O (˜pH 4). NMR spectra were recorded at 298K on a Bruker Avance-600 spectrometer. Two-dimensional NMR experiments included TOCSY with an […] MLEV-17 spin lock, NOESY (200 ms mixing time), ECOSY, as well as natural-abundance ^13C and ^15N HSQC. Solvent suppression was achieved using excitation sculpting. Spectra were processed using Topspin 2.1 then analyzed using CcpNmr Analysis. Chemical shifts were referenced to internal 2,2-dimethyl-2-silapentane-5-sulfonate (DSS).

[3] = Chemical denaturation with guanidinium hydrochloride (GdnHCl) monitored by CD spectroscopy; settings: 0 M to 6 M GdnHCl
Method: as §1, §2

[4] = Reduction of disulfide bonds with TCEP, folding monitored by CD spectroscopy; settings: 2.5 mM TCEP (~100-fold molar excess), incubated for 3 hours
Method: as §1, §2

Row | Substance | stability to thermal denaturation (CD spectra) [1] | change of secondary 1Hα chemical shifts (secondary structure) on heating ([2]; NMR spectra at 25° C., 55° C., 75° C.) | aggregation or irreversible conformation change on heating (secondary chemical shifts after cooling) ([2]; NMR, again after cooling to 25° C.) | stability to chemical denaturation (CD spectra) [3] | folding / secondary structure in the presence of the reductant TCEP (CD spectra) [4]
1 | NPELQRKCKELdTRpeaerkcreeSD (cyclo(NPELQRKCKEL[dD]TR[dP][dE][dA][dE][dR][dK][dC][dR][dE][dE]SD); disulfide 8-21 (inferred)) [NC_cHLHR_D1] | no change was observable on heating to 95 °C | no significant loss of secondary structure resulting from heating | not aggregation-prone or otherwise prone to irreversible conformation changes on heating |  | 
2 | EERRYKRCGQDEERVRRECKERGERQNCQYQIRKEGNCYVCEIRC [gEHEE_06] | thermostable |  |  | completely resistant to chemical denaturation | 
3 | CQTWRrVSPEECRKYKEEYnCVRCTE (CQTWR[dR]VSPEECRKYKEEY[dN]CVRCTE; disulfide 1-21, 12-24) [NC_EHE_D1] | only a small decrease |  |  |  | 
4 | PVTWCVRIpPTVRCTVRp (cyclo(PVTWCVRI[dP]PTVRCTVR[dP]); disulfide 5-14 (inferred)) [NC_cEE_D1] |  |  |  | do not chemically denature | not changed by reduction of the central disulfide bond
5 | HDPEKRKECEKKYTDPKKREECKRKA (cyclo(HDPEKRKECEKKYTDPKKREECKRKA); disulfide 9-22; not fully specified (some residues)) [NC_cHH_D1] |  |  |  | do not chemically denature | lost secondary structure
6 | CRCHITSSCVRVEGDNGEEYRYCSSDEEDLRRFCKEMQKQC [gEEEH_04] | resistant to both thermal and chemical denaturation |  |  | resistant to both thermal and chemical denaturation | 
7 | AEDCERIRKELEKNPNDEIKKKLEKCQA [gHH_44] | resistant to thermal denaturation |  |  |  | 
8 | PCEDLKERLKKLGMSEECRQRLEKMCKEGTSEDAERMARNCES [gHHH_06] | partially unfolds upon heating to 95 °C but returns to the folded state upon cooling |  |  |  | 
9 | PCECDVNGETYTVSSSEECERLCRKLGVTNCRVHCG [gEEHE_02] | impervious to both thermal and chemical denaturation |  |  | impervious to both thermal and chemical denaturation | remained partially folded in the presence of TCEP
10 | NPEDCRQDPEANKSPEECKKLK (cyclo(NPEDCRQDPEANKSPEECKKLK); disulfide 5-18; not fully specified (some residues)) [NC_cHHH_D1] |  |  |  | some loss of secondary structure in 6M GdnHCl | lost secondary structure
11 | NDKCKELKKRYPNCEVRCDpPRYEVHC (NDKCKELKKRYPNCEVRCD[dP]PRYEVHC; disulfide 14-27, 4-18; not fully specified; printed as NDKCKELKKRYPNCEVRCDpPRYEVHC) [NC_HEE_D1] | no loss in secondary structure |  |  | does not denature in 6 M GdnHCl | 
12 | SQETRKKCTEMKKKFKNCEVRCDESNHCVEVRCSDTKYTLC [gHEEE_02] | resistant to both thermal and chemical denaturation |  |  | resistant to both thermal and chemical denaturation | 
13 | QCYTFRSECTNKEFTVCRPNPEEVEKEARRTKEEECRK [gEEH_04] | less stable than the others to thermal denaturation |  |  |  | 
14 | TCEIRVTDTHCKVHCGTQEYKVPPGRTLKVGNCRFTYHDTTCTVECR [gEEEEEE_02] | resistant to both thermal and chemical denaturation |  |  | resistant to both thermal and chemical denaturation | 
15 | CKQRRRYRGSEEECRKYAEELSRRTGCEVEVECET [gEHE_06] | thermally and chemically stable |  |  | thermally and chemically stable | remained folded in the presence of TCEP
